This passage reports intracellular IFNγ staining, percent of T cells results from patent US20240156928A1.

This test has as its target CD19 (UniProt P15391). The experiment in a line: cell-based or functional assay.

Substance “CD19R:CD28:z(CO) CAR with L235E and N297Q in the IgG4 spacer (CD19R(EQ))” gave an intracellular IFNγ staining, percent of T cells of 30%.
